This is an account of results in patent US6753413.

Bounds are passed on as bounds.

Data set [1] deals with reconstituted Nclk (GST-p25/GST-Cdk5 complex) [GST: P08515]. The data set is described as follows: cell-based or functional assay.
A further data set has as its system T1, GST-C48 (SEQ. ID NO 4).
T1 sequence: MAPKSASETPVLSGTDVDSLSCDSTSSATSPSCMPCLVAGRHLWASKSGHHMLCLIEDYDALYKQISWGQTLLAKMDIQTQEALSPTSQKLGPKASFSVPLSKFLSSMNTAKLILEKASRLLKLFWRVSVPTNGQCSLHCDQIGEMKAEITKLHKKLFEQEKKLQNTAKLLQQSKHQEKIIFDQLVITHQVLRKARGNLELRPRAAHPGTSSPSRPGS

Another data set concerns T2, GST-C53 (SEQ ID NO 6).
T2 sequence: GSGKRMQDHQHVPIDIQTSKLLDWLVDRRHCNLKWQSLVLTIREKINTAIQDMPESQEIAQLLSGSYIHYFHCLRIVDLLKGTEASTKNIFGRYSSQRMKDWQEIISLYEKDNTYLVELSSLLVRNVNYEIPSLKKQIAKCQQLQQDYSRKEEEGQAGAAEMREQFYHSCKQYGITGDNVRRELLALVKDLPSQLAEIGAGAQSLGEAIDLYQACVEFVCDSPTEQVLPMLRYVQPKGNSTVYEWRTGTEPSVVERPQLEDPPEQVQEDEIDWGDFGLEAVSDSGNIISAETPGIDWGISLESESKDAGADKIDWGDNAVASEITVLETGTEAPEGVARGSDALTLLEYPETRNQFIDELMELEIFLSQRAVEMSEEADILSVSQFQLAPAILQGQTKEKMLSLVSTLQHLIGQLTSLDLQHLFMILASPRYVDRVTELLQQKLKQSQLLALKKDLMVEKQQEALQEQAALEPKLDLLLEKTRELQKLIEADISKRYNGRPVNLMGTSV

For “GST-C48 (SEQ. ID NO 4) (from UniProt Q9JLH5 1686-1903)”, the inhibition of Cdk5 kinase activity in data set [1] was less than 20%.

“GST-C53 (SEQ ID NO 6) (from UniProt Q9JLH7 1-504)” showed an inhibition of Cdk5 kinase activity in data set [1] of less than 20%.

Consider “reconstituted Nclk (GST-p25/GST-Cdk5 complex)”, for which the “phosphorylation by reconstituted Nclk (autoradiograph, Mg[γ-32P]ATP)” value in the data set with GST-C48 (SEQ. ID NO 4) was “the SEQ ID NO 4 (C48) and SEQ ID NO 6 (C53) proteins, but not the SEQ ID NO 2 (C42) protein, were phosphorylated by Cdk5 kinase”; in the data set on GST-C53 (SEQ ID NO 6), “the SEQ ID NO 4 (C48) and SEQ ID NO 6 (C53) proteins, but not the SEQ ID NO 2 (C42) protein, were phosphorylated by Cdk5 kinase”.
